In patent US20140017242A1, “ANTI-BRADYKININ B2 RECEPTOR (BKB2R) MONOCLONAL ANTIBODY” (Diamedica, Inc., priority 2010, published 2014):

What was measured:
ZDF fa/fa rats [1] = test: 21-day ZDF fa/fa study: glycated hemoglobin HbA1c; type: in vivo, rat; conditions: day 21
Procedure: (§1) Animals. Male ZDF fa/fa rats were obtained from CRL (Kingston, N.Y.). Upon arrival, rats were seven weeks of age. The rats were housed individually per cage in a room with a photo cycle of 12 hours of light and 12 hours of dark and an ambient temperature of 70-72° F. and fed on regular rodent diet and water ad libitum. At the age of eleven weeks, rats were divided into six groups (Table 5) of eight rats per group based on fasting blood glucose levels. A sub-group of four rats per group was maintained in parallel to the main groups and was dosed similarly for twenty-one days for a hyperinsulinemic-euglycemic clamp study. […]
(§2) An oral glucose tolerance test (OGTT) was performed on Day 0, 7, 14 and 21 for each group of the study. Plasma samples were collected at each time point during OGTT to also measure insulin levels. Body weight, food and water intake were measured twice a week. Blood pressure and heart rates were monitored on Day 0, 7, 14 and 21 using a non-invasive tail cuff method (with five readings per rat taken and then averaged). Fasting serum samples were collected on Day 0, 7, 14 and 21 before OGTT for determination of triglyceride and total cholesterol level. Urine samples were collected on Day 7 and 14 for the determination of glycosuria. Glycated (Glycosylated) hemoglobin (HbA1c) was measured at the end of the study. Assay kits for these studies were as presented in Table 6, and were used according to the suppliers' instructions.
The mean change in fasting blood glucose (mg/dL), serum cholesterol (mg/dL) and systolic blood pressure (mm Hg) from baseline ([…]) and negative control (MG2b-57, 0.2 mg/kg) groups using an analysis of covariance to adjust for baseline levels. […] A significance level of a=0.05 was used for all tests, and all analyses were conducted using SAS statistical software (vs. 9.2, Cary, N.C., U.S.A.).

ZDF fa/fa rats [2] = test: 21-day ZDF fa/fa study: oral glucose tolerance test (blood glucose, plasma insulin); type: in vivo, rat; conditions: day 21
Procedure: as §1, §2
OGTTs were performed on Day 0, 7, 14 and Day 21. Rats were fasted overnight and fasted blood glucose levels were measured (t=0 min), and then each rat was given a single 1.5 ml dose of glucose solution (2 g/kg body weight of D-(+)-glucose (G7528, Sigma) solubilized in deionized water) administered by oral gavage. […] At each time point of an OGGT approximately 50-60 μl of blood were collected and processed for plasma to measure insulin levels.
Plasma Collection. On days 0, 7, 14 and 21 during an OGTT test, blood samples were collected from the rats at each time point (0, 15, 30, 60, 90 and 120 minutes) into tubes containing lithium heparin (BD Biosciences, USA) by tail nip and kept on ice. The samples were then centrifuged at 4° C. for plasma separation and the plasma supernatants were transferred into 0.5 ml Eppendorf™ tubes by pipette and stored at −80° C. for the analysis of insulin levels.

MV-4-11 = test: MTT Cell Proliferation Assay, MV-4-11; type: cell-based, human; conditions: 120 hours of exposure
Text: This Example describes characterization of the cytotoxic activity of herein described anti-BKB2R monoclonal antibodies against a panel of cancer cell lines. BxPC-3 is a human adenocarcinoma cell line originally isolated from the pancreas (pancreatic cancer) (ATCC # CRL-1687; Tan et al., Cancer Invest. 4: 15-23, 1986. PubMed: 3754176). MV-4-11 is a human biphenotypic B myelomonocytic leukemia (mixed-lineage leukemia, MLL-AF4) cell line originally isolated from the peripheral blood (ATCC # CRL-959; Lange et al., Blood 70: 192-199, 1987. PubMed: 3496132). Hep G2 is a human hepatocellular carcinoma cell line isolated from the liver (liver cancer) (ATCC # HB-8065; Aden et al., Nature 282: 615-616, 1979. PubMed: 233137). RS4;11 is a human acute lymphoblastic leukemia (mixed-lineage leukemia, MLL-AF4) cell line isolated from the bone marrow (ATTC # CRL-1873) Stong et al., Blood 65: 21-31, 1985. PubMed: 3917311). HT-29 is a human colorectal adenocarcinoma (ATTC # HTB-38) cell line isolated from the colon (colon cancer). Fogh et al., J. Natl. Cancer Inst. 58: 209-214, 1977. PubMed: 833871). NUGC-4 is a human stomach carcinoma isolated from the stomach paragastiric lymph node (JCRB # JCRB0834; Akiyama et al., Jpn. J. Surg., 18: 438-446, 1988). […]
The anti-proliferative activity of test compounds against the indicated cell lines was evaluated in vitro using the ATCC's MTT Cell Proliferation Assay (Catalog No. 30-1010K). After the 120 hour incubation with drug (e.g., anti-BKB2R mAb or cisplatin), cell proliferation was measured by addition of MTT reagent to each well and incubation for an additional 4 hrs. […] Optical absorbance (570 nm) of the test wells was measured and then quantitated relative to control wells that received no drug. Results were expressed as percent inhibition versus compound concentration and graphed, as shown in FIGS. 19-25, for cell lines BxPC-3, MV-4;11, HepG2, RS-4;11, HT-29, NUGC-4, and PC-3, respectively.

B1: 5F12G1: murine monoclonal anti-BKB2R antibody (IgG2b,κ), VH comprising SEQ ID NO:1, VL comprising SEQ ID NO:2 (antibody, listed as Mus musculus, V domains shown)
VH: EVKLEESGGGLVQPGGSMKLSCVVSGFTFSDYWMSWVRHSPEMGLEWVAEIRLKSDNYATHYAESVKGRFTISRDDSKSRLYLQINSLRGEDTGIYYCTRDYYAMEYWGQGTSVTVSS
VL: DVVMTQTPLSLPVSLGDQASISCRSSQTIVHSNGKTYLEWYLQKPGQSPKLLIYKVSNRFSGVPDRFSGSGSGTEFTLKISRVETEDLGVYYCFQASHVPYTFGGGTKLEIK
With B1 the “percent glycosylated hemoglobin A1c (HbA1c)” value (ZDF fa/fa rats [1]; 0.2 mg/kg s.c. every 3 days (high dose)) was 6.3+/−0.5%, the “difference in percent HbA1c between the high dose and negative control animals” value (ZDF fa/fa rats [1]; 0.2 mg/kg s.c. every 3 days vs MG2b-57 0.2 mg/kg) was −2.58+/−0.85% and the “blood glucose level at the start of the OGTT” value (ZDF fa/fa rats [2]; 0.008 mg/kg s.c. every 3 days) was 190 ± 40 mg/dL. The fasting insulin level (ZDF fa/fa rats [2]; 0.008 mg/kg s.c. every 3 days) was 14 ± 3 ng/mL, the “insulin level at 15 minutes of the OGTT” value (ZDF fa/fa rats [2]; 0.008 mg/kg s.c. every 3 days) was 24 ± 6 ng/mL and the “blood glucose level at 30 minutes of the OGTT (peak)” value (“blood glucose level at 30 minutes” for short) (ZDF fa/fa rats [2]; 0.04 mg/kg s.c. every 3 days) was 355 mg/dL. For the same molecule, the “blood glucose level at the start of the OGTT” value (ZDF fa/fa rats [2]; 0.04 mg/kg s.c. every 3 days) was 163 ± 40 mg/dL, the fasting insulin level (ZDF fa/fa rats [2]; 0.04 mg/kg s.c. every 3 days) was 12 ± 3 ng/mL and the “insulin level at 15 minutes of the OGTT” value (ZDF fa/fa rats [2]; 0.04 mg/kg s.c. every 3 days) was 26 ± 3 ng/mL. For the same molecule, the “AUC of blood glucose during OGTT” value (ZDF fa/fa rats [2]; 0.2 mg/kg s.c. every 3 days) was 33241.13 ± 3910.62 mg/dL (min), the “blood glucose level at 30 minutes” value (ZDF fa/fa rats [2]; 0.2 mg/kg s.c. every 3 days) was 312 mg/dL and the “blood glucose level at the start of the OGTT” value (ZDF fa/fa rats [2]; 0.2 mg/kg s.c. every 3 days) was 150 ± 20 mg/dL. The fasting insulin level (ZDF fa/fa rats [2]; 0.2 mg/kg s.c. every 3 days) was 17 ± 5 ng/mL, the “insulin level at 15 minutes of the OGTT” value (ZDF fa/fa rats [2]; 0.2 mg/kg s.c. every 3 days) was 30 ± 7 ng/mL and the “blood glucose level at 30 minutes” value (ZDF fa/fa rats [2]; 0.008 s.c. every 3 days) was 400 mg/dL. The “EC 50 Values (ng/ml) MV-4-11” value (MV-4-11) was 35000 ng/mL.
